Experimental data from patent publication US20100034834A1.

Tests used:
[1] = biological target: NY-ESO-1 peptide … presented on peptide-pulsed T2 cells (UniProt P61769); assay: cell-based or functional assay
[2] = biological target: g9-154 (gp100) peptide … presented on peptide-pulsed T2 cells (UniProt P61769); assay: cell-based or functional assay

Row | IFN-γ secreted by transfected CD4+ T cells (Patient) with peptide-pulsed T2 cells [1] [pg/mL] | IFN-γ secreted by transfected CD8+ T cells (Patient) with peptide-pulsed T2 cells [1] [pg/mL] | IFN-γ secreted by transfected CD4+ T cells (Patient) with peptide-pulsed T2 cells [2] [pg/mL] | IFN-γ secreted by transfected CD8+ T cells (Patient) with peptide-pulsed T2 cells [2] [pg/mL] | Substance
1 | 6380 | 10200 | < 30 | < 30 | 1G4 mut1 (G70A): WT 1G4 alpha chain + beta chain G70A (TCR)
2 | 10700 | 8860 | < 30 | < 30 | 1G4 mut3 (G70A/A71I): WT 1G4 alpha chain + beta chain G70A/A71I (TCR)
3 | 8970 | 10100 | < 30 | < 30 | 1G4 mut2 (A71I): WT 1G4 alpha chain + beta chain A71I (TCR)
